Experimental data published in the Human Domainome abundance scans (Beltran et al. 2025).
± gives the uncertainty stated by the source.

B1: GAS2-like protein 1, residues 209 to 276; numbered along this chain, Q99501 (parent)
chain: DELVREILGRCTCPDQFPMIKVSEGKYRVGDSSLLIFVRVLRSHVMVRVGGGWDTLEHYLDKHDPCRC

Variants of: B1
Experiment: abundance fitness (aPCA) (normalised: wild type 0, dead -1); higher = more abundant; growth selection in yeast, the domain comes from the species named
Settings: Homo sapiens

For SELVREILGRCTCPDQFPMIKVSEGKYRVGDSSLLIFVRVLRSHVMVRVGGGWDTLEHYLDKHDPCRC [D1S], which abundance fitness is on record?
The abundance fitness was -0.205 ± 0.13.

Which abundance fitness does the source give for FELVREILGRCTCPDQFPMIKVSEGKYRVGDSSLLIFVRVLRSHVMVRVGGGWDTLEHYLDKHDPCRC [D1F] here?
Its abundance fitness is -0.55 ± 0.4.

For EELVREILGRCTCPDQFPMIKVSEGKYRVGDSSLLIFVRVLRSHVMVRVGGGWDTLEHYLDKHDPCRC [D1E], which abundance fitness is on record?
The abundance fitness was -0.087 ± 0.2.

For TELVREILGRCTCPDQFPMIKVSEGKYRVGDSSLLIFVRVLRSHVMVRVGGGWDTLEHYLDKHDPCRC [D1T], which abundance fitness is on record?
The abundance fitness was -0.707 ± 0.15.

Which abundance fitness does the source give for GELVREILGRCTCPDQFPMIKVSEGKYRVGDSSLLIFVRVLRSHVMVRVGGGWDTLEHYLDKHDPCRC [D1G] here?
Its abundance fitness is -0.596 ± 0.17.

For NELVREILGRCTCPDQFPMIKVSEGKYRVGDSSLLIFVRVLRSHVMVRVGGGWDTLEHYLDKHDPCRC [D1N], which abundance fitness is on record?
Its abundance fitness is -0.536 ± 0.13.

Which abundance fitness does the source give for HELVREILGRCTCPDQFPMIKVSEGKYRVGDSSLLIFVRVLRSHVMVRVGGGWDTLEHYLDKHDPCRC [D1H] here?
The abundance fitness was -0.693 ± 0.24.

Which abundance fitness does the source give for DELVAEILGRCTCPDQFPMIKVSEGKYRVGDSSLLIFVRVLRSHVMVRVGGGWDTLEHYLDKHDPCRC [R5A] here?
Its abundance fitness is 0.056 ± 0.052.

For DELVCEILGRCTCPDQFPMIKVSEGKYRVGDSSLLIFVRVLRSHVMVRVGGGWDTLEHYLDKHDPCRC [R5C], which abundance fitness is on record?
Its abundance fitness is -0.316 ± 0.41.

Which abundance fitness does the source give for DELTREILGRCTCPDQFPMIKVSEGKYRVGDSSLLIFVRVLRSHVMVRVGGGWDTLEHYLDKHDPCRC [V4T] here?
Its abundance fitness is -0.833 ± 0.17.

For DELNREILGRCTCPDQFPMIKVSEGKYRVGDSSLLIFVRVLRSHVMVRVGGGWDTLEHYLDKHDPCRC [V4N], which abundance fitness is on record?
The abundance fitness was -0.876 ± 0.18.

With DELDREILGRCTCPDQFPMIKVSEGKYRVGDSSLLIFVRVLRSHVMVRVGGGWDTLEHYLDKHDPCRC [V4D] as the variant, how does the abundance fitness read?
Its abundance fitness is -0.888 ± 0.15.

Which abundance fitness does the source give for DELFREILGRCTCPDQFPMIKVSEGKYRVGDSSLLIFVRVLRSHVMVRVGGGWDTLEHYLDKHDPCRC [V4F] here?
Its abundance fitness is -0.35 ± 0.072.

Which abundance fitness does the source give for DELCREILGRCTCPDQFPMIKVSEGKYRVGDSSLLIFVRVLRSHVMVRVGGGWDTLEHYLDKHDPCRC [V4C] here?
Its abundance fitness is -0.717 ± 0.18.

Which abundance fitness does the source give for DELRREILGRCTCPDQFPMIKVSEGKYRVGDSSLLIFVRVLRSHVMVRVGGGWDTLEHYLDKHDPCRC [V4R] here?
The abundance fitness was -0.71 ± 0.12.

For DELAREILGRCTCPDQFPMIKVSEGKYRVGDSSLLIFVRVLRSHVMVRVGGGWDTLEHYLDKHDPCRC [V4A], which abundance fitness is on record?
Its abundance fitness is -0.804 ± 0.095.

For DELQREILGRCTCPDQFPMIKVSEGKYRVGDSSLLIFVRVLRSHVMVRVGGGWDTLEHYLDKHDPCRC [V4Q], which abundance fitness is on record?
Its abundance fitness is -1.01 ± 0.24.

Which abundance fitness does the source give for DELHREILGRCTCPDQFPMIKVSEGKYRVGDSSLLIFVRVLRSHVMVRVGGGWDTLEHYLDKHDPCRC [V4H] here?
Its abundance fitness is -0.855 ± 0.2.

For DELEREILGRCTCPDQFPMIKVSEGKYRVGDSSLLIFVRVLRSHVMVRVGGGWDTLEHYLDKHDPCRC [V4E], which abundance fitness is on record?
The abundance fitness was -0.463 ± 0.071.

Which abundance fitness does the source give for DELWREILGRCTCPDQFPMIKVSEGKYRVGDSSLLIFVRVLRSHVMVRVGGGWDTLEHYLDKHDPCRC [V4W] here?
The abundance fitness was -0.796 ± 0.34.

With DELGREILGRCTCPDQFPMIKVSEGKYRVGDSSLLIFVRVLRSHVMVRVGGGWDTLEHYLDKHDPCRC [V4G] as the variant, how does the abundance fitness read?
The abundance fitness was -0.966 ± 0.32.

With DELKREILGRCTCPDQFPMIKVSEGKYRVGDSSLLIFVRVLRSHVMVRVGGGWDTLEHYLDKHDPCRC [V4K] as the variant, how does the abundance fitness read?
Its abundance fitness is -0.685 ± 0.23.

For DELIREILGRCTCPDQFPMIKVSEGKYRVGDSSLLIFVRVLRSHVMVRVGGGWDTLEHYLDKHDPCRC [V4I], which abundance fitness is on record?
The abundance fitness was 0.049 ± 0.043.

With DELLREILGRCTCPDQFPMIKVSEGKYRVGDSSLLIFVRVLRSHVMVRVGGGWDTLEHYLDKHDPCRC [V4L] as the variant, how does the abundance fitness read?
Its abundance fitness is -0.388 ± 0.053.

Which abundance fitness does the source give for DELSREILGRCTCPDQFPMIKVSEGKYRVGDSSLLIFVRVLRSHVMVRVGGGWDTLEHYLDKHDPCRC [V4S] here?
Its abundance fitness is -0.836 ± 0.12.

Which abundance fitness does the source give for DELMREILGRCTCPDQFPMIKVSEGKYRVGDSSLLIFVRVLRSHVMVRVGGGWDTLEHYLDKHDPCRC [V4M] here?
The abundance fitness was -0.34 ± 0.071.

Which abundance fitness does the source give for DEEVREILGRCTCPDQFPMIKVSEGKYRVGDSSLLIFVRVLRSHVMVRVGGGWDTLEHYLDKHDPCRC [L3E] here?
The abundance fitness was -0.627 ± 0.12.

With DESVREILGRCTCPDQFPMIKVSEGKYRVGDSSLLIFVRVLRSHVMVRVGGGWDTLEHYLDKHDPCRC [L3S] as the variant, how does the abundance fitness read?
The abundance fitness was -0.459 ± 0.069.

Which abundance fitness does the source give for DECVREILGRCTCPDQFPMIKVSEGKYRVGDSSLLIFVRVLRSHVMVRVGGGWDTLEHYLDKHDPCRC [L3C] here?
Its abundance fitness is -0.117 ± 0.076.

Which abundance fitness does the source give for DEDVREILGRCTCPDQFPMIKVSEGKYRVGDSSLLIFVRVLRSHVMVRVGGGWDTLEHYLDKHDPCRC [L3D] here?
Its abundance fitness is -0.559 ± 0.15.

For DEHVREILGRCTCPDQFPMIKVSEGKYRVGDSSLLIFVRVLRSHVMVRVGGGWDTLEHYLDKHDPCRC [L3H], which abundance fitness is on record?
The abundance fitness was -0.34 ± 0.081.

Which abundance fitness does the source give for DEMVREILGRCTCPDQFPMIKVSEGKYRVGDSSLLIFVRVLRSHVMVRVGGGWDTLEHYLDKHDPCRC [L3M] here?
Its abundance fitness is -0.034 ± 0.063.

With DEFVREILGRCTCPDQFPMIKVSEGKYRVGDSSLLIFVRVLRSHVMVRVGGGWDTLEHYLDKHDPCRC [L3F] as the variant, how does the abundance fitness read?
Its abundance fitness is -0.221 ± 0.14.

With DEVVREILGRCTCPDQFPMIKVSEGKYRVGDSSLLIFVRVLRSHVMVRVGGGWDTLEHYLDKHDPCRC [L3V] as the variant, how does the abundance fitness read?
Its abundance fitness is -0.324 ± 0.057.

With DEQVREILGRCTCPDQFPMIKVSEGKYRVGDSSLLIFVRVLRSHVMVRVGGGWDTLEHYLDKHDPCRC [L3Q] as the variant, how does the abundance fitness read?
Its abundance fitness is -0.025 ± 0.053.

For DETVREILGRCTCPDQFPMIKVSEGKYRVGDSSLLIFVRVLRSHVMVRVGGGWDTLEHYLDKHDPCRC [L3T], which abundance fitness is on record?
Its abundance fitness is -0.526 ± 0.11.

Which abundance fitness does the source give for DEPVREILGRCTCPDQFPMIKVSEGKYRVGDSSLLIFVRVLRSHVMVRVGGGWDTLEHYLDKHDPCRC [L3P] here?
The abundance fitness was -0.711 ± 0.11.

Which abundance fitness does the source give for DEKVREILGRCTCPDQFPMIKVSEGKYRVGDSSLLIFVRVLRSHVMVRVGGGWDTLEHYLDKHDPCRC [L3K] here?
The abundance fitness was -0.06 ± 0.044.

With DEIVREILGRCTCPDQFPMIKVSEGKYRVGDSSLLIFVRVLRSHVMVRVGGGWDTLEHYLDKHDPCRC [L3I] as the variant, how does the abundance fitness read?
The abundance fitness was -0.129 ± 0.072.

With DEWVREILGRCTCPDQFPMIKVSEGKYRVGDSSLLIFVRVLRSHVMVRVGGGWDTLEHYLDKHDPCRC [L3W] as the variant, how does the abundance fitness read?
Its abundance fitness is -0.643 ± 0.11.

With DERVREILGRCTCPDQFPMIKVSEGKYRVGDSSLLIFVRVLRSHVMVRVGGGWDTLEHYLDKHDPCRC [L3R] as the variant, how does the abundance fitness read?
The abundance fitness was 0.01 ± 0.046.

Which abundance fitness does the source give for DENVREILGRCTCPDQFPMIKVSEGKYRVGDSSLLIFVRVLRSHVMVRVGGGWDTLEHYLDKHDPCRC [L3N] here?
Its abundance fitness is -0.675 ± 0.15.

For DEYVREILGRCTCPDQFPMIKVSEGKYRVGDSSLLIFVRVLRSHVMVRVGGGWDTLEHYLDKHDPCRC [L3Y], which abundance fitness is on record?
Its abundance fitness is -0.268 ± 0.063.
